The test addresses FBXO11 (UniProt Q86XK2). Nature of the test: co-IP of exogenous proteins. Conditions: reference: wild type.

Regarding β-catenin (from UniProt P35222) S33A, for the setting “sites S33”, the “binding against the reference” value was “lost”.
Take β-catenin (from UniProt P35222) S37A: the “binding against the reference” value (sites S37) is “lost”.

These data come from paper PMC11414387.
